From patent US20160347814A1

Target: Inducible counterpart receptor for VSTM5 on anti-CD3 activated human CD4+ T cells
Test: FACS on anti-CD3 activated primary human CD4+ T cells, 100 ug/ml; background of the isotype control on the whole cells

Synagis (Palivizumab, anti-RSV humanized IgG1 mAb) (antibody)
gMFI: 0.335
